Data set [1] in a line: Gal3-488 internalisation, 10 min 37 °C. Particulars: glycan lost; control: WTseq.
The nature of data set [2]: response of SLC3A2 endocytosis to 5 min inhibitor. Particulars: glycan lost; control: WTseq (inhibitor reduced internalization by ∼50%).
A short description of data set [3]: dox-induced expression and FLAG pull-down efficiency. Particulars: control: WTseq.
The nature of data set [4]: surface anti-SLC3A2 antibody binding at 4 °C, imaging. Particulars: glycan lost; control: WTseq.
Data set [5] is described as follows: endosomal distribution of internalised SLC3A2, confocal. Particulars: glycan lost; control: WTseq (small peripheral endosomes).
Data set [6] can be described thus: anti-SLC3A2 antibody uptake, 10 min 37 °C. Particulars: glycan lost; control: WTseq.

B1: SLC3A2 (4F2hc, CD98): N381D (protein)
parent chain: MELQPPEASIAVVSIPRQLPGSHSEAGVQGLSAGDDSELGSHCVAQTGLELLASGDPLPSASQNAEMIETGSDCVTQAGLQLLASSDPPALASKNAEVTGTMSQDTEVDMKEVELNELEPEKQPMNAASGAAMSLAGAEKNGLVKIKVAEDEAEAAAAAKFTGLSKEELLKVAGSPGWVRTRWALLLLFWLGWLGMLAGAVVIIVRAPRCRELPAQKWWHTGALYRIGDLQAFQGHGAGNLAGLKGRLDYLSSLKVKGLVLGPIHKNQKDDVAQTDLLQIDPNFGSKEDFDSLLQSAKKKSIRVILDLTPNYRGENSWFSTQVDTVATKVKDALEFWLQAGVDGFQVRDIENLKDASSFLAEWQNITKGFSEDRLLIAGTNSSDLQQILSLLESNKDLLLTSSYLSDSGSTGEHTKSLVTQYLNATGNRWCSWSLSQARLLTSFLPAQLLRLYQLMLFTLPGTPVFSYGDEIGLDAAALPGQPMEAPVMLWDESSFPDIPGAVSANMTVKGQSEDPGSLLSLFRRLSDQRSKERSLLHGDFHAFSAGPGLFSYIRHWDQNERFLVVLNFGDVGLSAGLQASDLPASASLPAKADLLLSTQPGREEGSPLELERLKLEPHEGLLLRFPYAA
For the protein B1, in data set [1], the “other: Gal3 uptake by expressing cells” value is listed as “decreases”. The localisation_or_trafficking result in data set [2] is listed as “abolishes”; in data set [4], “no change”; in data set [5], “changes”; in data set [6], “increases”. Also, the expression_or_secretion entry in data set [3] (glycan lost) is “no change”.

B2: SLC3A2 (4F2hc, CD98): A273N + D355N (protein)
parent chain: B1 parent chain
For B2, in data set [3] (glycan gained), the expression_or_secretion entry is reported as “no change”.

B3: SLC3A2 (4F2hc, CD98): A273N (protein)
parent chain: B1 parent chain
As to B3, the expression_or_secretion result in data set [3] (glycan gained) was “no change”.

B4: SLC3A2 (4F2hc, CD98): N365D (protein)
parent chain: B1 parent chain
In the case of B4, the “other: Gal3 uptake by expressing cells” value in data set [1] is “increases”. Also, the localisation_or_trafficking result was “changes” in data set [2], “no change” in data set [4], “changes” in data set [5] and “increases” in data set [6]. The expression_or_secretion result in data set [3] (glycan lost) is “no change”.

B5: SLC3A2 (4F2hc, CD98): D355N + D492N (protein)
parent chain: B1 parent chain
Take B5: in data set [3] (glycan gained), the expression_or_secretion result is given as “no change”.

For the origin of these results see paper PMC10698284.
